Results published in PMC3278277.

Columns and labels:
Details in all cases: glycan gained; control: wild type
[1] = Uptake index: recipient lysate activity / input medium activity
[2] = Anti-V5 blot of Ni-NTA purified C-terminal fragment, COS-1
[3] = GALC blot and activity in H4 conditioned medium
[4] = HNG colorimetric assay, stable H4 lysates

B1: galactocerebrosidase (GALC): D528N (protein)
parent chain: MLGKSHGRATHGPLPLADLGIHLPCVKVLHQVTPEEKPAATSRLLVNYPEPYRSQILDYLFKPNFGASLHILKVEIGGDGQTTDGTEPSHMHYALDENYFRGYEWWLMKEAKKRNPNITLIGLPWSFPGWLGKGFDWPYVNLQLTAYYVVTWIVGAKRYHDLDIDYIGIWNERSYNANYIKILRKMLNYQGLQRVKIIASDNLWESISASMLLDAELFKVVDVIGAHYPGTHSAKDAKLTGKKLWSSEDFSTLNSDMGAGCWGRILNQNYINGYMTSTIAWNLVASYYEQLPYGRCGLMTAQEPWSGHYVVESPVWVSAHTTQFTQPGWYYLKTVGHLEKGGSYVALTDGLGNLTIIIETMSHKHSKCIRPFLPYFNVSQQFATFVLKGSFSEIPELQVWYTKLGKTSERFLFKQLDSLWLLDSDGSFTLSLHEDELFTLTTLTTGRKGSYPLPPKSQPFPSTYKDDFNVDYPFFSEAPNFADQTGVFEYFTNIEDPGEHHFTLRQVLNQRPITWAADASNTISIIGDYNWTNLTIKCDVYIETPDTGGVFIAGRVNKGGILIRSARGIFFWIFANGSYRVTGDLAGWIIYALGRVEVTAKKWYTLTLTIKGHFTSGMLNDKSLWTDIPVNFPKNGWAAIGTHSFEFAQFDNFLVEATR
- other: cellular uptake, other: uptake index [1]: decreases
- other: proteolytic processing [2]: no change
- expression_or_secretion [3]: decreases
- enzymatic_activity, percent_of_wt [4]: decreases
